From patent publication US11795454B2, “Targeted delivery system” (Cedars-Sinai Medical Center, priority 2009, dated 2023) come the findings set out here.

One data set concerns HER2 siRNA. Put plainly: siRNA gel mobility shift assay. It counts as binding. Conditions: 50 pmol siRNA, increasing protein. An excerpt:
The gel was stained with ethidium bromide to visualize siRNA and siRNA-protein complexes.
One goal was to assemble a noncovalent siRNA conjugate. […] The duplex, which was obtained from Invitrogen (Carlsbad, CA, USA), has been established elsewhere to specifically eliminate HER2 transcripts and thus induce apoptosis (Choudhury et al., 2004; Faltus et al., 2004).

Data set [1] has as its system MDA-MB-435 (HER2+) cells. Put plainly: HerDox targeted toxicity in vitro, separate cultures. The following applies: 10× molar excess. It is filed as cell-based, human. The protocol:
All treatments, N=3. FIG. 27A. Comparing cytotoxicity to HER2+ (MDAMB-435) and HER2− (MDA-MB-231) cells in separate cultures. Left, Relative survival (as % of untreated cells) on day 3 of treatment. Right, Micrograph of live cells after treatment. Control, mock (HBS) treatment. FIG. 27B, Receptor specificity of cytotoxicity. […] FIG. 27C, Toxicity to cells displaying differential HER2. Cytotoxicities from HerDox titrations were assessed on each cell line by metabolic assay and confirmed by crystal violet stain on day 3 of treatment. CD50 values (shown in log scale) were determined by non-linear regression analyses of HerDox killing curves using GraphPad Prism. The relative HER2 level of each cell line is shown next to each CD50 value. FIG. 27D, Targeting in a mixed MDA-MB-435(HER2+,GFP−)/MDA-MB-231(HER2−,GFP+) cell culture. Survival was determined by calculating the relative doubling time (DT) of experimental (exp) cells normalized by mock-treated (con) cells based on crystal violet stains (total cells) and GFP fluorescence (MDAMB-231 cells), and applying DTMDA-MB-435=DTTotal-DTMDA-MB-231 as previously described. Relative survival is shown for Day 2 of treatment. FIG. 27E, Targeted glioma cell death in vitro. U251 cells were treated once with the indicated HerDox (and competitive inhibitor where indicated) or Dox doses and measured for cell survival at the indicated time points after treatment. * P<0.05 compared to Mock.
For all in vitro treatments, cell lines were grown for ˜36 h after plating (104/well in 96-well dishes) to allow receptor re-expression, followed by media replacement with new media containing indicated constructs in reduced volume at the indicated final molarities for 4 h with rocking, followed by supplementation with additional media and continued growth for the indicated time periods. Except for the experiments performed on the U251 glioma cells (which received a one-time treatment), cells received these treatments daily while separate sets of wells were assessed for cell death by either metabolic assay (CellTiter Promega Corporation, Madison, WI, USA) or crystal violet stain each day. Where indicated, cells received competitive inhibitor (eHRG) at 10× molar excess for 30 min-1 h at 4° C. before treatment. Treatment of mixed (HER2+/HER2−) cell cultures with HerDox or Dox (0.5 uM), and cell surface receptor subunit level determination were performed as previously described.

The next data set relates to HER2+ MDA-MB-435 tumors. The data set is described as follows: Tumor growth after intratumoral injection. Conditions: two IT injections a week apart, 1.5 nmoles siRNA. It counts as in vivo, mouse. On the procedure:
FIGS. 15A-15B depict, in accordance with an embodiment herein, effect on tumor growth. Female (6-8 week) nude mice were inoculated with human HER2+ MDA-MB-435 cancer cells by subcutaneous flank injections of 1×10^7 cells per injection. At 4-6 weeks after implant, weekly measurements were taken to quantify tumor volume and track growth. […] Complex was prepared as described in FIG. 14. FIG. 15A, representative mice at week 4 with tumors indicated by arrows.
Before testing for targeted toxicity of HerPBK10-siRNA, the inventors assessed cytotoxic potential in vivo after intratumoral (IT) injection of complexes in tumor-bearing mice. […] Blood was also collected after each injection to assess cytokine levels. […] Even though the complex was not delivered intravenously but rather by IT injection, there still appears to be an advantage to the targeted complex with regard to tumor toxicity.

Data set [2] relates to IFN-alpha. Put plainly: IFN-alpha secretion by sandwich ELISA, MDA-MB-231 cells. It is filed as cell-based, human. Conditions: 24 h. On the procedure:
(§1) FIGS. 13A-13B depict, in accordance with an embodiment herein, cytokine induction. […] At 24 h after treatment, media was collected from above the cells and assayed for (FIG. 13A) IFN-alpha, or (FIG. 13B) IFN-beta titer by sandwich ELISA following manufacturer's protocol (PBL Biomedical Laboratories). *, P<0.01 (compared to untreated); **, P=0.01 (HER2+ vs HER2− cells); †, P<0.05 (compared to untreated). Statistical significances determined by 2-tailed t tests.
(§2) To examine whether cytokines contribute to the targeted toxicity observed earlier, the media of HerPBK10-siRNA (T7-transcribed)-treated HER2+ MDA-MB-435 and HER2− MDA-MB-231 cells were collected and assayed by ELISA for interferons alpha and beta. […] Given the overall low level of cytokine detected in the medium by all treatments, these differences are likely to have little relevance.
In general terms: ELISA stands for enzyme-linked immunosorbent assay.

Data set [3] is described as follows: siRNA stability in serum, agarose gel electrophoresis. It counts as in vitro ADME, bovine. Conditions: 100% serum, 1 h at 37° C.
Text: We examined the stability of siRNA conjugates in whole serum. […] Ethidium bromide staining of the agarose gel identifies the siRNA molecular size and relative concentration.
Data set [4] relates to IFN-alpha. Put plainly: In vivo cytokine induction, blood IFN-alpha ELISA after IT injection. The arrangement: species or system mouse. Conditions: 24 h after each IT injection, compared to saline control. On the procedure: FIG. 16 depicts, in accordance with an embodiment herein, in vivo cytokine induction. Blood was collected from the mice treated in FIG. 15B at 24 h after each IT injection and relative IFN-alpha levels quantified by sandwich ELISA following manufacturer's protocol (PBL Biomedical Laboratories). Control, tumors receiving saline injections. *, P=0.05 compared to control (as determined by 2-tailed unpaired T test).
To examine whether cytokines contribute to the tumor reduction observed and described herein, blood was collected from the same mice at 24 h after each IT injection and assayed for interferon (TFN)-alpha. […] It is possible that its indirect contribution results from enhanced tumor delivery, penetration, retention. Together with the tumor-shrinkage observed from these injections, these findings provide additional evidence that the targeted carrier, HerPBK10, can deliver both siRNA-mediated silencing and cytokine-mediated cytotoxicity to induce two-pronged targeted destruction to tumor cells.

Data set [5] deals with HER2+ (MDA-MB-435) tumors. The data set is described as follows: In vivo tumor targeting of Cy5-labeled siRNA, fluorescence imaging. Details: species or system mouse. Conditions: tail vein injection. An excerpt: FIGS. 23A-23C depict in accordance with an embodiment herein, monitoring in vivo tumor targeting. […] The mice were immediately monitored by in vivo fluorescence intensity imaging through our collaborators' imaging facility (Farkas lab, Cedars-Sinai Medical Center). 23C, Analysis of the fluorescence intensity contrast between tumor and non-tumor areas of 23A and 23B (graphs).

The test system of data set [6] is MDA-MB-435 (HER2+) cells. The data set is described as follows: Cell survival (crystal violet) after targeted or lipo-mediated siRNA delivery. It is filed as cell-based, human. The protocol:
(§3) Complexes were prepared as described in FIG. 2. Un, untreated. In FIG. 12A, *, P<0.02 (HER2+ vs HER2− cells). In FIG. 12B, *, P<0.05 (compared to untreated). Significant differences determined by 2-tailed t tests.

Another data set relates to MDA-MB-231 (HER2−) cells. The data set is described as above. It counts as cell-based, human. The protocol: as §3
Data set [7] concerns HER2+ human breast cancer cells. The data set is described as follows: Survival of HER2+ cells in culture after targeted conjugate (summary). It counts as cell-based. Conditions: depending on the cell line. An excerpt:
The inventors designed HerPBK10 to penetrate HER2+ cells by combining the ‘Her’ domain for binding heregulin receptors, which have an increased ligand affinity on HER2+ tumor cells, and the membrane lysis and intracellular trafficking features of the ‘PB’ domain, which is derived from the cell-entry functions of the Ad capsid. Binding and transport of nucleic acids can be mediated by the polylysine, ‘K10’ domain. […] Using in vivo fluorescence imaging, it was observed that the targeting ligand used here specifically accumulates at HER2+ tumor tissue in mice while evading accumulation in other tissues. It was also observed that HerPBK10 could mediate the uptake of a Cy3-labeled oligonucleotide in HER2+ cells. […] Associated with this reduction was substantial target cell death.

The nature of data set [8]: Ultrafiltration of HerPBK10-siRNA conjugates (100K mwco, high speed centrifugation). It is filed as physicochemical. An excerpt:
FIGS. 6A-6B depict, in accordance with an embodiment described herein, HerPBK10-siRNA form stable conjugates that can be isolated by ultrafiltration. Conjugates were made in 0.1M Hepes/OptimemI buffer for 20′-RT, as described above. […] Filtrates and retentates were collected and loaded onto either a 2% agarose (FIGS. 6A and 6B, left panel) or 5% PAGE/native gel (FIG. 6B, right panel). Gels were stained for Et-Br to visualize siRNA and siRNA-protein complexes.

Data set [9] concerns IFN-alpha. Put plainly: IFN-alpha secretion by sandwich ELISA, MDA-MB-435 cells. It is filed as cell-based, human. The following applies: complex at 10 and 50 nM siRNA dose, HerPBK10 equivalent to 50 nM dose, 24 h. The protocol:
as §1, §2

Consider “PB: penton base segment of adenovirus serotype 5 [reference compound]”, for which the siRNA electromobility entry with HER2 siRNA is recorded as “did not”.

B1: eHRG: competitive inhibitor, competing ligand of the heregulin receptor (protein, UniProt Q02297 20-242, looked up)
extracellular domain: SGKKPESAAGSQSPALPPRLKEMKSQESAAGSKLVLRCETSSEYSSLRFKWFKNGNELNRKNKPQNIKIQKKPGKSELRINKASLADSGEYMCKVISKLGNDSASANITIVESNEIITGMPASTEGAYVSSESPIRISVSTEGANTSSSTSTSTTGTSHLVKCAEKEKTFCVNGGECFMVKDLSNPSRYLCKCQPGFTGARCTENVPMKVQNQEKAEELYQKR
modifications: extracellular domain
Take B1: in the data set with MDA-MB-435 (HER2+) cells [1], the “effect of competitive inhibitor on cell killing by HerDox” value is given as “prevented HER2+ cell killing”.

B2: HerPBK10-siRNA: noncovalent conjugate of HerPBK10 with anti-HER2 siRNA bound via electrophilic interaction (conjugate)
chain: LPPRLKEMKSQESAAGSKLVLRCETSSEYSSLRFKWFKNGNELNRKNKPQNIKIQKKPGKSELRINKASLADSGEYMCKVISKLGNDSASANITIVESNEIITGMPASTEGAYVSSESPIRISVSTEGANTSSSTSTSTTGTSHLVKCAEKEKTFCVNGGECFMVKDLSNPSRYLCKCQPGFTGARCTENVPMKVQNQEKAEELYMRRAAMYEEGPPPSYESVVSAAPVAAALGSPFDAPLDPPFVPPRYLRPTGGRNSIRYSELAPLFDTTRVYLVDNKSTDVASLNYQNDHSNFLTTVIQNNDYSPGEASTQTINLDDRSHWGGDLKTILHTNMPNVNEFMFTNKFKARVMVSRLPTKDNQVELKYEWVEFTLPEGNYSETMTIDLMNNAIVEHYLKVGRQNGVLESDIGVKFDTRNFRLGFDPVTGLVMPGVYTNEAFHPDIILLPGCGVDFTHSRLSNLLGIRKRQPFQEGFRITYDDLEGGNIPALLDVDAYQASLKDDTEQGGGGAGGSNSSGSGAEENSNAAAAAMQPVEDMNDHAIRGDTFATRAEEKRAEAEAAAEAAAPAAQPEVEKPQKKPVIKPLTEDSKKRSYNLISNDSTFTQYRSWYLAYNYGDPQTGIRSWTLLCTPDVTCGSEQVYWSLPDMMQDPVTFRSTRQISNFPVVGAELLPVHSKSFYNDQAVYSQLIRQFTSLTHVFNRFPENQILARPPAPTITTVSENVPALTDHGTLPLRNSIGGVQRVTITDARRRTCPYVYKALGIVSPRVLSSRTFKKKKKKKKKK
Consider B2, for which, in the data set with HER2+ MDA-MB-435 tumors, the tumor growth entry is “average reduction in tumor growth”. Besides, the IFN-alpha secretion result in the data set with IFN-alpha [2] is “little affected”; in the data set with IFN-alpha [9], “substantially elevated”. Also, the “State of the siRNA (ethidium bromide staining)” value in [3] is given as “intact”. The “circulating IFN-alpha” value in the data set on IFN-alpha [4] is on record as “elevated circulating IFN-alpha”. The tumor retention result in [5] is “tumor retention”. Further, the “fluorescence intensity contrast between tumors and non-tumor areas” value in data set [5] (all time points, compared to free siRNA) is “preferential tumor accumulation”. Moreover, the cell survival entry in the data set on MDA-MB-435 (HER2+) cells [6] is recorded as “dose-dependent reduction in survival”; with MDA-MB-231 (HER2−) cells, “little to no effect”. Also, the “reduction in HER2+ cell survival” value in data set [7] is listed as “up to 85%”. The “Free siRNA in 100K filtrates” value in data set [8] is on record as “low to no detection of free siRNA”.
